Results as given in patent publication US20060045884A1, “Vaccines for autoimmune and infectious disease” (Board of Regents, priority 2004, published 2006).

Target: HLA-A2.1 heavy chain with I125-labeled β2-microglobulin (heterotrimer dissociation assay) (human)
Test: dissociation of 125I-β2-microglobulin from the HLA-A2.1/peptide/β2m heterotrimer, HPLC gel filtration

Q: “HTLV-1 Tax peptide (aa 11-19) (from UniProt P03409 11-19) (peptide; other documents disagree on this pair)” was tested. Which T1/2 did it give?
A: The T1/2 was 133 h.
